# B1: Glucosamine-6-phosphate deaminase 2 (Homo sapiens), Q8TDQ7 (parent)
# chain: MRLVILDNYDLASEWAAKYICNRIIQFKPGQDRYFTLGLPTGSTPLGCYKKLIEYHKNGHLSFKYVKTFNMDEYVGLPRNHPESYHSYMWNNFFKHIDIDPNNAHILDGNAADLQAECDAFENKIKEAGGIDLFVGGIGPDGHIAFNEPGSSLVSRTRLKTLAMDTILANAKYFDGDLSKVPTMALTVGVGTVMDAREVMILITGAHKAFALYKAIEEGVNHMWTVSAFQQHPRTIFVCDEDATLELRVKTVKYFKGLMHVHNKLVDPLFSMKDGN
# partner: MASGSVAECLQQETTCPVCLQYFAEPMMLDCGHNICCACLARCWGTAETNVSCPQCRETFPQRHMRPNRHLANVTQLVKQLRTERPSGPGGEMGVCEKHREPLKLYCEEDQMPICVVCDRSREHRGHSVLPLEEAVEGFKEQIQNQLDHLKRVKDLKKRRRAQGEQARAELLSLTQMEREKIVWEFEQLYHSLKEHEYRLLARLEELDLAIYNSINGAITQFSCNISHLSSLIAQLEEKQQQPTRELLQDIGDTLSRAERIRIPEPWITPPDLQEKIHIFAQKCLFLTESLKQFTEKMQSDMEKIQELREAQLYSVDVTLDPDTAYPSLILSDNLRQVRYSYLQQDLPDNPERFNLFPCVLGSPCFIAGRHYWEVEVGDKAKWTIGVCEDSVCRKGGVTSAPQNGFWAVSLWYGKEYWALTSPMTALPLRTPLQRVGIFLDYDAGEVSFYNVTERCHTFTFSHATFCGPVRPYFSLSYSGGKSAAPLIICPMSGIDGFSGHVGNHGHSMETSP
# B2: U3 small nucleolar RNA-associated protein 25 homolog (Homo sapiens), Q68CQ4 (parent)
# chain: MGKRGSRSQSQLLNTLTKKQKKHLRDFGEEHPFYDRVSRKEAKPQICQLSESSDSSDSESDSESEPQQVSGYHRLLATLKNVSEEEEEDEEEEEEEDSIVDDAEMNDEDGGSDVSVEEEMAAESTESPENVALSADPEGKEDGEEPPGTSQTSPEEFTDAKHESLFSLETNFLEEESGDNSSLKASQDPFLQHVNKELKEKAIQAVATNPKTTHELKWPILGQLFFSSKFQKLETFKPPKDIDLKSLHLQKPLESTWTKTNSQFLSGPQKSSSPFTPLQKELFLIMNSYRDLFYPERTALKNGEEIRHVYCLHVINHILKANAQVLGNNSRRRSQKFGVGDDDDFRDQGLTRPKVLIVVPFREAALRVVQLFISLLEGDSKKKIIVSNKKRFQGEYGSDPEERPPNLKRPEDYEAVFVGNIDDHFRIGVAILQRSIRLYAPFYSSDILIASPLGLRTIIGGEGEKKRDFDFLSSIELLIIDQADIYLMQNWEHVLHLMNHMNLLPLDSHGVDFSRVRMWSLNNWSKYYRQTLLFGALQDAQINSVFNKYCVNMQGQVAVRNVPMTGSISHVLVQLPHVFQRMEAENLASVIDARFNFFVNKILPQYRDAVMSHTLIYIPSYFDFVRLRNYFKKEELNFTHICEYTQKSGVSRARHFFLQGEKQFLLFTERFHFYKRYTIKGIRNLIFYELPTYPHFYSEICNMLRATNRGEEATWTCTVLYSKYDAQRLAAVVGVERAAQMLQSNKNVHLFITGEK
# partner: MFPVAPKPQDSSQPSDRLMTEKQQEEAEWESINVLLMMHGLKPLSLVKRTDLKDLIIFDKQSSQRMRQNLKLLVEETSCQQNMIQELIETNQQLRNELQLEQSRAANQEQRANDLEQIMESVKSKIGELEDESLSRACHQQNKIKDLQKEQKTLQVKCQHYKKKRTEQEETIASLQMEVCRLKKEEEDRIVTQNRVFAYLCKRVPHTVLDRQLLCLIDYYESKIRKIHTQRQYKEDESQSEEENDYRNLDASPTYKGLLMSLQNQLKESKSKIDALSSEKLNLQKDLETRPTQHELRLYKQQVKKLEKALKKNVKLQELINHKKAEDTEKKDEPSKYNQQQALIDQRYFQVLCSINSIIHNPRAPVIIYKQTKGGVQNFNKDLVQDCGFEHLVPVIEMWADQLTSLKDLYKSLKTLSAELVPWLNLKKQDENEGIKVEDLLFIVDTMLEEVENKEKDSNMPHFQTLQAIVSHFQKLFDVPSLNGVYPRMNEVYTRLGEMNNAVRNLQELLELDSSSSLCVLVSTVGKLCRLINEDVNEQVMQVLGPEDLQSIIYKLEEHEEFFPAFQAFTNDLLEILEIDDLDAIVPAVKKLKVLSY
# B3: MOB kinase activator 3C (Homo sapiens), Q70IA8 (parent)
# chain: MALCLKQVFAKDKTFRPRKRFEPGTQRFELYKKAQASLKSGLDLRSVVRLPPGENIDDWIAVHVVDFFNRINLIYGTMAERCSETSCPVMAGGPRYEYRWQDERQYRRPAKLSAPRYMALLMDWIEGLINDEEVFPTRVGVPFPKNFQQVCTKILTRLFRVFVHVYIHHFDSILSMGAEAHVNTCYKHFYYFIREFSLVDQRELEPLREMTERICH
# partner: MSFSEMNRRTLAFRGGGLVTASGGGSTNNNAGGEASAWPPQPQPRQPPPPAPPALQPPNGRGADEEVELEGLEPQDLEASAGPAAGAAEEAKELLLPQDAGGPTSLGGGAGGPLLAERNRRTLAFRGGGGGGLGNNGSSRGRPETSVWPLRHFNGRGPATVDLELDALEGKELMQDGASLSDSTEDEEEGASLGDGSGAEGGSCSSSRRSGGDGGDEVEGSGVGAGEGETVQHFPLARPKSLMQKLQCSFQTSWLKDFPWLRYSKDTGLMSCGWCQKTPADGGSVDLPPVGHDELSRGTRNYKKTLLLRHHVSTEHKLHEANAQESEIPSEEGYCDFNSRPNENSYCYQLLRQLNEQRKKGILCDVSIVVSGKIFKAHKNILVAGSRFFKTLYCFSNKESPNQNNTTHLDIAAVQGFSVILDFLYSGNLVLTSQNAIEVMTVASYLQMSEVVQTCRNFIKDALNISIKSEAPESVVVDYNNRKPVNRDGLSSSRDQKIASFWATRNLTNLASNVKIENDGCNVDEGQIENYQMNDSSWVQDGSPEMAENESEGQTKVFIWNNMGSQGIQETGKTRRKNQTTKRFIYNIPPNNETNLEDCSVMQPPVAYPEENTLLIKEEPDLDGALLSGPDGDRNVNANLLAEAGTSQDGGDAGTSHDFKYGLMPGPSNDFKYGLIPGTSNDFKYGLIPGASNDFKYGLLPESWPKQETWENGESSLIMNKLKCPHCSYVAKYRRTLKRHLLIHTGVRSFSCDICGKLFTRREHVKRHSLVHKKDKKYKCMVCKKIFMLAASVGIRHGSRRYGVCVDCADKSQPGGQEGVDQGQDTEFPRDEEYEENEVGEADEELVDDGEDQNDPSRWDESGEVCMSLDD
# B4: Late cornified envelope protein 1B (Homo sapiens), Q5T7P3 (parent)
# chain: MSCQQNQQQCQPPPKCIPKCPPKCLTPRCPPKCPPKCPPVSSCCSVSSGGCCGSSSGGSCGSSSGGCCSSGGGGCCLSHHRRRRSHCHRPQSSGCCSQPSGGSSCCGGGSGQHSGGCC
# partner: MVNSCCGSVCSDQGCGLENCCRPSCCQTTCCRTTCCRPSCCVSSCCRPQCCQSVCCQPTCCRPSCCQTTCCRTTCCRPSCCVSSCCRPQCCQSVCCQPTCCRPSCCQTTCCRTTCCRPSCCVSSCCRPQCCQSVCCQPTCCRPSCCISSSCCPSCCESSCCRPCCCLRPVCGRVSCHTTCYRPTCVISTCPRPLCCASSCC
# B5: Late cornified envelope protein 1B (Homo sapiens), Q5T7P3 (parent)
# chain: B4 chain
# partner: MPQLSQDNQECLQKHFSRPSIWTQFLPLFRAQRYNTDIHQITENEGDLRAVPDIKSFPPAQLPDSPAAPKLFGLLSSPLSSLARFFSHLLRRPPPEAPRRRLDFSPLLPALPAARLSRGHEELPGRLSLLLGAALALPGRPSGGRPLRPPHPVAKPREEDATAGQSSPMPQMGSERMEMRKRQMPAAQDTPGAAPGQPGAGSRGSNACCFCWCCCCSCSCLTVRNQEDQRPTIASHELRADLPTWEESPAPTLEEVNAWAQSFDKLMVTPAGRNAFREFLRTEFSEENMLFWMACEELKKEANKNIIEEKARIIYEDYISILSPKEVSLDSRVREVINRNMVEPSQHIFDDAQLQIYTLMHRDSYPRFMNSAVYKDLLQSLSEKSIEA
# B6: Abl interactor 2 (Homo sapiens), Q9NYB9 (parent)
# chain: MAELQMLLEEEIPGGRRALFDSYTNLERVADYCENNYIQSADKQRALEETKAYTTQSLASVAYLINTLANNVLQMLDIQASQLRRMESSINHISQTVDIHKEKVARREIGILTTNKNTSRTHKIIAPANLERPVRYIRKPIDYTILDDIGHGVKWLLRFKVSTQNMKMGGLPRTTPPTQKPPSPPMSGKGTLGRHSPYRTLEPVRPPVVPNDYVPSPTRNMAPSQQSPVRTASVNQRNRTYSSSGSSGGSHPSSRSSSRENSGSGSVGVPIAVPTPSPPSVFPAPAGSAGTPPLPATSASAPAPLVPATVPSSTAPNAAAGGAPNLADGFTSPTPPVVSSTPPTGHPVQFYSMNRPASRHTPPTIGGSLPYRRPPSITSQTSLQNQMNGGPFYSQNPVSDTPPPPPPVEEPVFDESPPPPPPPEDYEEEEAAVVEYSDPYAEEDPPWAPRSYLEKVVAIYDYTKDKEDELSFQEGAIIYVIKKNDDGWYEGVMNGVTGLFPGNYVESIMHYSE
# partner: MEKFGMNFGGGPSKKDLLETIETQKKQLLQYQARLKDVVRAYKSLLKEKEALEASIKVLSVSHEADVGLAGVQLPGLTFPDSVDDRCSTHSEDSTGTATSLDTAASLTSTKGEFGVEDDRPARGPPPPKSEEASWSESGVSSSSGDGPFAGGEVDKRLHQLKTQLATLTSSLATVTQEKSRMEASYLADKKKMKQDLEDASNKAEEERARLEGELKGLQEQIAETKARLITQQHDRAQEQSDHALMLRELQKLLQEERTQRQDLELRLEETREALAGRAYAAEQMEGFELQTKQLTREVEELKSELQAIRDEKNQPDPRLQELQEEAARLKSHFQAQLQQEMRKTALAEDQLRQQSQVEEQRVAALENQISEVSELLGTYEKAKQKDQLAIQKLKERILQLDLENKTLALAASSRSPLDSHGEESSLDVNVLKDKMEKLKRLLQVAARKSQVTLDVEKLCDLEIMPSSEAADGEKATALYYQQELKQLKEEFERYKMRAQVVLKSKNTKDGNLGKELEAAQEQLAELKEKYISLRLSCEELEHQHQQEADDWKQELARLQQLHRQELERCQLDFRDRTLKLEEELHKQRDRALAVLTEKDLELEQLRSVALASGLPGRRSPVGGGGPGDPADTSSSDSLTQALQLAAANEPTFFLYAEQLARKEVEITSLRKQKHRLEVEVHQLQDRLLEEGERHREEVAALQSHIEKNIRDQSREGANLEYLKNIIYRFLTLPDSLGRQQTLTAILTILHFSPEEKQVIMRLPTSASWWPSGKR
# Variants of: B1
# Conditions: with tri27_human TRIM27, P14373
row,Variant,effect of a mutation on the interaction
1,I216V,with no effect

# Variants of: B2
# Conditions: with cep70_human CEP70, Q8NHQ1
row,Variant,effect of a mutation on the interaction
1,D399E,with no effect

# Variants of: B3
# Conditions: with zbt10_human ZBTB10, Q96DT7
row,Variant,effect of a mutation on the interaction
1,I173F,disrupting interaction strength

# Variants of: B4
# Conditions: with kr412_human KRTAP4-12, Q9BQ66
row,Variant,effect of a mutation on the interaction
1,C16Y,disrupting interaction strength

# Variants of: B5
# Conditions: with rgs20_human RGS20, O76081
row,Variant,effect of a mutation on the interaction
1,C16Y,with no effect

# Variants of: B6
# Conditions: with gcc1_human GCC1, Q96CN9
row,Variant,effect of a mutation on the interaction
1,E202K,with no effect

# From IntAct's records for PubMed 29892012
